Experimental data as given in the domain aggregation screens of Martell et al. (2025).

Assay: soluble fraction after stress (log2 fold change); higher = more stays soluble; pooled small domains, quantitative proteomics
Conditions: stress: pH 4
In short: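 Pooled custom libraries of small protein domains were stressed at pH 4 and then measured by high-throughput quantitative proteomics. The fold change in the amount of each domain that stays soluble after the acid stress serves as a measure of aggregation propensity. Fold changes are given on a log2 scale, and higher values mean more of the domain stayed soluble.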

| Sequence | soluble fraction (log2) |
| --- | --- |
| HMDEPVDRLSPREQEVLALMAEGRSNAAIAHRLSITEKAVAKHINSIFTKLDLPLDEDDHRRVRAVLAWLR | -0.464 |
| HMTPKVDLTVAEDGSASAVIAGLRVEIDAAGKVTAVAPADGTTDLSSVAPEAVKEAMDNALAAYTASKG | 0.167 |
| HMGIDAIDNFVSKIIMKIEGLGESEVPTSTIGKFIMEGLQYLDTVAYVRYASVYKNFKEAKDFEQFVGSL | -0.566 |
| HMLFSEKLKQAMQDLHLNQIQVVGLTGKSKGSISQYISGKQVPSEATQRDIAISLGLEENYFSKK | 0.216 |
| HMSYKYYSTERPLMPGSFPKPQGNTVLNIENFNDRSYVGKIGREAWGFIEYEKPISPVLLDDYELVAA | ≥ 0.43 |
| HMKPSKYTLAIDSIPVHVTRKQMKSIRLRVTPLGEVRVSAPYGVKDSEIVEMVRSRKLWIESQQRA | -0.0235 |
| HMSRLLERARDLMAKPGAWLSAEGGAYALRLSPDRRSRISLTLTETEFRALIDQPGLRVRPGGGWSGRA | -0.484 |
| HMTTLEGIEKYLGSGMIRGIGPAYAGRLTKVFGEAVFDVIEQSPERLREVEGIGPKRVSRIVSGWAEQ | -0.707 |
| HMTKVIEFLVSDEEHGVRADKAFVSHNQKLSRSYFKKLILNGNLYINNKVNLDPSYKLIKGSTVRIILPE | -0.698 |
| HMNKFADLAGNIIYNENGVEVFNFGKYKGQPVAEVFKKDIGYYGWIQNADFPRYTKKVFTAIQLKSK | -0.0985 |
| HMNVESLVGKQVIVSETIDNLKATGQVKVNGLEWTARAADETDIIPQGTEVTINEVSGVKLIVSR | 0.0287 |
| HMIVIMAKESSPAELEGVKNRIESHPGLRPQVFDGVERIVVGVLGSIPPDLKDEIELLPGVIEVVPISK | -0.211 |
| HMQPHLSADEEHLLKILGSDTMHIDALVKRSTLETSNALAALAFLEMKGLVKNIGNMHYIRTYR | -0.518 |
| HMGRRDLSWQPAAGGVSIDGLKAGEAWTLFGLNGRILKQGYAPEGQMSLAVNAGLFVLRGAESGVIRIAVA | -0.255 |
| HMNPNFIEVSHGRLRVNVPLSAYEGTTYHIKPEEAEKLKRTLASRYPWLTPNALKVFIEEAEQAMRERIQ | 0.217 |
| HMITDQQKEQLSSLLKQAEAALAKAAANDQVLAAHKDEAVELLKSTSATSADAADLINELTELLKPYQ | -0.605 |
| HMDLYEILGVRRGAGGGEIRRAYRRLARRYHPDVNPGDREAQARYALITRAFETLNDPERRRAYDAGVP | 0.0754 |
| HMDDAFLNKEMLKQALENLNEREKKLIYLRFYEGLTQKEIADRLSLSQMHVSRLLNESLNKLRRKI | -0.0579 |
| HMLTLEDMTRINSIISPRIKKGQSLYHIAKNNGDELNISESTLRRLVMTGEMDAGIIDLPQAVK | -0.333 |
| HMDDLTTASIKQQLKALIDEENKNKPLSDQKLTDALKAQGIDISRRTVAKYREAMNIPGSSKRKRF | 0.0697 |
| HMYGHKLDSYESYVVSELRRWPFLSAPQIHDRLKEHFSDLPLVTPKTVFNFVNRLRLTHSLPKE | -0.215 |
| HMDAPHPSVVQVYFESRDRSWTYYNDRFDLHEGDLVYVEGKLEGVRGRVVEVSYNFRIKLADYKRVIAVA | -0.122 |
| HMEKRIIMLEELKKQVYEANMELPRRGLITYTWGNVSGIDRESGNFVIKPSGVDYDKLKPEDMVVMDL | 0.0555 |
| HMYQNRLFYTLKTGETVADLSKSQDINLSTIWSLNKHLYSSESEMMKAAPGQQIILPLKKLP | 0.135 |
| HMGLKQADFEELASRIFTVLEEKSMTPAEIVRKLNLEPDRISIVIQYLLDEGKLNIKDGFINNSA | -0.773 |

| Sequence | soluble fraction (log2) |
| --- | --- |
| HMAVVQMVDRPGGLDELLKDVVRAGVNFANAYGRTASDGNSAFFVIDIQDIPGARQKLADVGLQILADEAV | -0.512 |
| HMKSVTAPLPGTVTQILVKVGDAVKAGDTVLMLEAMKMENSITAEAAGTVKAIRVEKGAQVQGGDVLIEM | -0.594 |
| HMGIVYGVIKENWDQDHPGMVKVEILQGESGKNVSDWIPVMSPYAGKEFGAYALPEIGTQAVVAFE | -0.0368 |
| HMSTDKIDIVSSAILSSLKDNDGFIGLTDKSPPPEIYTAFRVSKKVFKQAIGALYKQRRITLESSGIRLIS | -0.107 |
| HMPAKDAEFTAFVRSATPTLTRTAYLLTGDRETASDLVQEAFVRTYLAWRRVRPEEATAYTRRVLVN | 0.22 |
| HMATMSIDERILEIRSRAGLTQQEMADRLFVTRQAVSRWERGETVPGIDTLRLIAEAFDVRVDQILEL | -1.11 |
| HMGLAALLQSGPVAGTVLSHQPGGKVVIAFQGQAYPLNLKGRTLQPGQSVLARMAGEQISLEVI | -0.0159 |
| HMMTLEESYKLLQVSHNASDIEITKAFKKLALLYHPDKNPSNIDWANKAMASINVAYNTIITHRFKEK | -0.2 |
| HMSFESMGLTPRQADVLTLLLQGKSNKDIARRLVLSVETVKDHVQAVLRALGVSSRTQAVLAVGQMTQQ | -0.37 |
| HMAAPVGLTQRQMEVAALVADGLTNAEIGRRLHITERSAESHLERVRIRLGFRSRAQVAAWFVTQE | -0.493 |
| HMGPEVQLAYSEFLAKVKVGEVNDVMVKGNEIHGHFSDGRTFSTYSPNDPDLVEKLNKNKVMIKAAPP | -0.0878 |
| HMGIDRPLFTLAQFARQIGEQVKISLSLPQDGRRRLQGKVLSVGESGIVLDVDGREFTVAIGNVDKARL | -0.197 |
| HMKMSVKNEIISLLEKNRDTSISGQVIADSLNVTRAAVWKAIKVLKEEGYNIDGTPNKGYILLGNN | 0.0991 |
| HMVKLDDLTGQDKASAEAAISNLGLKYSEQQEYSDEIEEGKVTRTDPGAGSTSLKAGDTVTVYISRGPE | -0.348 |
| HMAAESWTEKSRALAAAGLVVMGRDAQTKIEELTNLAPLIEAANASNTRLLTSQSIDELLSIVPTEENL | -0.0379 |
| HMGRTKEEIFNILKERIVTLQYEPGKILNEIELSEEFEVSRTPIRTVFQQLEAVKLVSIVPRYGVQVA | -1.11 |
| HMEHNDPEVERTMFQGLEALKLQLFEKAFGHFSLLIKLAPDYAEAWNKRATVLYLMGRFKESESDVMRTLE | -0.0178 |
| HMAGHKVDFSELPARSQAFIGKNFPTEMVKNVEMERKDAKDHYTVLLSNGTKVMFDGTSGELTGV | 0.0825 |
| HMTETFVLNLRQPIAAAPVLPGYRVARTDEQTLEVEVSKDQNLNEIFTALSALGVEVLSMRNK | -0.303 |
| HMGRTITVGIAEDADIKDIAKMLEEKGLISDYRLFVVQELLSAQHDKIKPGIYDLSTDMKAEEMLEILAG | -1.33 |
| HMVDKNDLTAIDGIGPFLEKKLNDVGVFTYADIAGWDAAKIEEITQQISFFEGRIEKDDWVGQAQKLIDDQ | -0.704 |
| HMQQNDMTELRALAEKIISENDSVINDYKSGQGSALQFLIGQAMKETKGSANPQVISEIFTDLL | -0.548 |
| HMIDFIGLEAKLLSTISGEKMGNAEVIVDGNVMNIYVKSLDTSEIKFRENVLIIKQSDDKNYYLVAKP | -1.01 |
| HMLWTHIALPVRSLDDTMAFYDKYTTLENIHERQDPETNMRSVWLANPGDKTEQAARFVLVLI | -0.126 |
| HMKPVTVINFVGMTEEKAMTEAEKLGLVVGASSSEYSDEPAGTVIRQSISVSTEAKTGDNIYFTVSKGPE | -0.416 |

| Sequence | soluble fraction (log2) |
| --- | --- |
| HMEEILLSVKADGTYWVDQKEVTLDEVGALLDKEPDRLLNIFMDEKVPVRHFINVVDIAKVKREGRFII | -1.74 |
| HMEISAIIGNNLQQLRKEQGLSLDQLALKTGVSKAVLSQLENGKANPTINTIWKIATALHVTYSALLEPP | -0.347 |
| HMEDNLVTYPNPTSDYIYVSKKVDLTVVNMLGDILIQKQNINVLDVTELTPGMYTIVIRYNNVTTNKRIIK | -0.335 |
| HMVDLDIENYELEDILNLFRLQYNFVEADLKRAYRMALKLHPDKSGLDGEYFRFYMKAYKIVENIFNFRNR | -1.38 |
| HMNQYRKLDGDVQNQIIYILSEYPKLPATIVYQRLLDTNTIVKKDVSLSTVNRFVQKYKDSKGIT | 0.0672 |
| HMRKIKDVLRLKLHAGLSHERVAASLNISKGVVAKYTSLAAAAGLDWPTVERLSEAALERRLV | 0.22 |
| HMDPLGALSDRERQVLALIGQGHGLQAIADQLGVSYKTAANTSSALKKKLGVDGINGLMKFALDSG | 0.023 |
| HMYSYSGSVSNTHDVPVSVVLKDAEGVAIASWDLQAKQSLNISAKDIATSSGTIEITGDGVSETKTVTFTK | -0.229 |
| HMVEKRLFPQISDAGKRLDLFLAGALAISRTMVVKIIKDGGVLVNGKAAKASYRLAGDEELLVSYEEP | -0.243 |
| HMTKEGVNISITADGVQLSTESPNRVSIFNVNGTKVWEGIAPANVSLQKGVYILQTANGNTKFV | -0.407 |
| HMSGQKDVPDLYGMTVKQAKKEVEAAGFKLKEGKEVYSNDYSKGQIAEQDPESGSKAKKGSSITVHVSKG | 0.22 |
| HMQHRSRALHLQEELVRRYYDQAIAPFMIFWEMKANVTLDQLKELRAVVSPSLNEHPYTKQLDEYIRLAE | -0.275 |
| HMLDLYYDSEDKLLIDMGTGEVIRSFADDKRSLVFDAQAKILFDEDSGDIVYSSYFDKLITDKLASKS | -1.51 |
| HMTGEERRMNTADLYRRRGMELFKRKIYVDAIDSLKVSLEYEDNATTRYYLDLATKRYQDLKIS | -0.0891 |
| HMKEPQLGPVRKWSDQTGNFGIEAQFVKREGDNILLKRADQRTISIPLEKLSDADQEHLKQEEQKQAME | -0.312 |
| HMTEKIEWYKEVLDLEPNSKIFFPLAKMLEKEGELEEARRVLAEGVSRHEEFLEARLFYISVLSRL | -1.05 |
| HMVRQKYKSNFITVGDKSLTIHDWAQRLNLSQYALRNRYKEFGKEWVEKAIKTILETGDNTHIYK | 0.0662 |
| HMDENVVLRKVAREAFVIEYVRGIRAIDPGIGGPKLWLMYKREFGDNDTVGRDTFEDILDRNNLKVRI | -0.363 |
| HMTITIGNSDGGYMKMGADGFEVRFSGSDGGNHYAKMYYNNDGWARLTLGSYGEEKARIDSDGMIQTR | 0.208 |
| HMANWRVGQTINALVSDRMPSGGLLLTVGRQSFVTTRDIPVQPGARIMLEVQQVEPKLVLRLVSA | -0.236 |
| HMRTKLEEAVEWLQEQLNDGPVLSKELESEAKAADILPGTLRRAGEALGVVKQKQGGRGGWTWSLPR | ≥ 0.43 |
| HMPEPPRVGETLAALRQDRALSLDELSRQAGVSKSMLSQIERNQANPTVAVVWRLANALGVPMAELLGA | -0.192 |
| HMIQTKNVTFTINEKTKIANIPLKSLKILSQEDNRITLSYEKNSLKIDEIISYFSDKNINILDITTD | -1.05 |
| HMKKILIVTNRSAGMVVYTIPEEGIRREFTPGETKKIPFEELEKLAYLSGGRTLMENFLKIVDTETTEELG | -1.44 |
| HMNFTVTDKNAVLYSNDNTKVYESPDINSKLVTTIAKDLPVNVTGITSNGWFRISLEGTYYVPGNGLEQR | -0.251 |
